Measured values taken from patent publication US20120171195A1.

Key:
HLA-B*4403 (human) = experiment: Luminex beads; MAb 1/100; PBS only
HLA-Cw*0801 (human) = HLA-Cw*0801 (human) (UniProt P10321); experiment: Luminex beads; MAb 1/100; PBS only
HLA-B*1401 (human) = HLA-B*1401 (human) (UniProt P01889); experiment: Luminex beads; MAb 1/200; competitor IgG-free serum
HLA-B*4006 (human) = HLA-B*4006 (human) (UniProt P01889); experiment: as above
HLA-B*5201 (human) = experiment: as above
HLA-B*5801 (human) = experiment: as above
HLA-Cw*0304 (human) = experiment: as above
HLA-Cw*0501 (human) = experiment: as above
HLA-Cw*0602 (human) = HLA-Cw*0602 (human) (UniProt P10321); experiment: as above
HLA-Cw*1701 (human) = experiment: as above
HLA-Cw*1802 (human) = HLA-Cw*1802 (human) (UniProt P10321); experiment: as above

Question: “murine monoclonal antibody (MAb) MEM-E/02” was tested. Which MFI (HLA-B*4403 (human)) did it give?
Answer: 3680 MFI

Question: And the MFI (HLA-Cw*0801 (human))?
Answer: 5890 MFI

Question: And the MFI (HLA-B*1401 (human))?
Answer: 5370 MFI

Question: What about the MFI (HLA-B*4006 (human)) of the same substance?
Answer: 7410 MFI

Question: What about the MFI (HLA-B*5201 (human)) of the same substance?
Answer: 2020 MFI

Question: What about the MFI (HLA-B*5801 (human)) of the same substance?
Answer: 3420 MFI

Question: And the MFI (HLA-Cw*0304 (human))?
Answer: 2030 MFI

Question: What about the MFI (HLA-Cw*0501 (human)) of the same substance?
Answer: 6260 MFI

Question: And the MFI (HLA-Cw*0602 (human))?
Answer: 2190 MFI

Question: And the MFI (HLA-Cw*1701 (human))?
Answer: 1930 MFI

Question: And the MFI (HLA-Cw*1802 (human))?
Answer: 8810 MFI
